Data as given in publication PMC7269513 (Antimicrobial Agents and Chemotherapy, 2020).
Where “and” joins values, the source holds several entries; their conditions need not be identical. Equal values may be shown once.

System: O=C(Cc1cccs1)N[C@@H]1C(=O)N2C(C(=O)O)=C(/C=C/c3ccc([N+](=O)[O-])cc3[N+](=O)[O-])CS[C@H]12
Assay: purified protein, by the assay type

(Acinetobacter baumannii)
Km: 62 µM and 28 µM and 34 µM
kcat: 357 s⁻¹ and 208 s⁻¹ and 518 s⁻¹
kcat/Km: 5.8e+06 M⁻¹ s⁻¹ and 7.6e+06 M⁻¹ s⁻¹ and 1.5e+07 M⁻¹ s⁻¹

(Enterobacter cloacae)
Km: 100 µM
kcat: 479 s⁻¹
kcat/Km: 4.8e+06 M⁻¹ s⁻¹

(Escherichia coli)
Km: 22 µM and 24 µM
kcat: 334 s⁻¹ and 341 s⁻¹
kcat/Km: 1.5e+07 M⁻¹ s⁻¹

(Klebsiella pneumoniae)
Km: 29 µM
kcat: 406 s⁻¹
kcat/Km: 1.4e+07 M⁻¹ s⁻¹

(Pseudomonas aeruginosa PAO1)
Km: 55 µM
kcat: 133 s⁻¹
kcat/Km: 2.4e+06 M⁻¹ s⁻¹

(Serratia marcescens)
Km: 26 µM
kcat: 229 s⁻¹
kcat/Km: 8.9e+06 M⁻¹ s⁻¹
